Where a chain is given by its changes, count along the chain named.
T1: human TIGIT ECD-mFc (fusion protein of extracellular domain of human TIGIT and mouse IgG2a Fc fragment) (human)
T1 chain: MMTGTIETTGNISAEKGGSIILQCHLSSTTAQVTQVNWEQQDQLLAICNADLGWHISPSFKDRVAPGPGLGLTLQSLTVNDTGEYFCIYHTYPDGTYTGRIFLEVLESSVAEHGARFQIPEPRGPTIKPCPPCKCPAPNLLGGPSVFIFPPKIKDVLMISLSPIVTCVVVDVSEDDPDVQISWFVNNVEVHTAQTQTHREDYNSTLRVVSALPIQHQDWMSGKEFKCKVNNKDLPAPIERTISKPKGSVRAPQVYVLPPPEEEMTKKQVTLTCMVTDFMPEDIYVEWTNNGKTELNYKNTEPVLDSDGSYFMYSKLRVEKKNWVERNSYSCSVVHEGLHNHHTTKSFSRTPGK

T2: full-length human TIGIT on CHO-K1 cells (CHO-K1 human TIGIT) (human, UniProt Q495A1 22-244)
T2 construct: NCBI XP_024309156.1; entry includes the signal peptide; also called high expression strain 1D2; medium expression strain 2D10
T2 sequence: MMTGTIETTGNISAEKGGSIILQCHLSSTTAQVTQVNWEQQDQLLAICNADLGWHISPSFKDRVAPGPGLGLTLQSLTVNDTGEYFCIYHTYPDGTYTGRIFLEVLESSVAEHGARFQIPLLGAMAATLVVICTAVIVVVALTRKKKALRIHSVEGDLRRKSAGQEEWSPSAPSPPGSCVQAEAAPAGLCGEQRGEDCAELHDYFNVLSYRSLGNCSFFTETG

T3: human TIGIT ECD-his (fusion protein of extracellular domain of human TIGIT and His-tag) (human)
T3 construct: entry includes the signal peptide, limits not readable here
T3 chain: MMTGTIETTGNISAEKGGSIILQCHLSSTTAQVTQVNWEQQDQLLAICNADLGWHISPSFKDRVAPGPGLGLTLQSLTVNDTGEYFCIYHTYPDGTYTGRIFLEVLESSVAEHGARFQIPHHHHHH

B1: TIGIT-CHI-002 (antibody, V domains shown)
VH: EVQLQESGPGLAKPSQTLSLACSVTGYSITSDSWNWIRKFPGNKLEYMGYISYSGNTYYNPSLKSRISITRDTSKNQFYLQLNSVTTEDTATYYCARLDFSNYGGAVDYWGQGTSVTVSS
VL: DIVMTQSHTFMSTSVGDRVSITCKASQNVRTAVAWYQQKPGQSPKLMIYSASYRYTGVPDRFTGSGSGTDFTFTISSVQAEDLAVYYCQQYYTTPWTFGGGAKLEIQ
notes: human-mouse chimeric antibody
B2: TIGIT-CHI-005 (antibody, V domains shown)
VH: QVQLQQSGAELVRPGTSVKVSCKASGYAFTNYLIEWVKQRPGQGLEWIGVINPGSGGTNYKEKFKGKATLTADKSSSTAYMQLSSLTSEDSAVYFCARGEYFFFDYWGQGTTLTVSS
VL: DIVMTQSHKFMSTSVGDRVSITCKASQHVSNGVAWYQHKPGQSPKLLIYSASYRYTGVPDRFTGTGSGTDFTFTISSVQAEDLAVYYCQQHYNTPHTFGGGTKLEIK
notes: human-mouse chimeric antibody
B3: TIGIT-CHI-006 (antibody, V domains shown)
VH: B1 VH with L18P, A21T, I29M, S33Y, N56R, L98G, F100Y, V107M, D108Y, Y109D
VL: DIVMTQSHKFMSTSVGDRVSITCRASQGVSTTIAWYQQKPGQSPKLLIYSASYRYTGVPDRFTGSGSGTDFTFTISGVQAEDLAVYYCQQYYSSPFTFGGGTKLEIK
notes: human-mouse chimeric antibody
B4: TIGIT-CHI-070 (antibody, V domains shown)
VH: QVQLQQPGTELVKPGASVKLSCRASGYTFTNYYMHWVKQRPGRGLEWIGRIDPDSGGSKYNEKFKSKATLTVDKLSSTAYMQLSSLTSEDSAVYYCAREGHYGFYSDYWGQGTTLTVSS
VL: DIQMTQSPASLSASVGETVTITCRVSENIYSYLAWYQQKQGKSPQLLVYNAKTLAEGVPSRFSGSGSGTQFSLKINSLQPEDFGNYYCQHHYGNPLTFGAGTKLDLK
notes: human-mouse chimeric antibody

Biological target: T1, human TIGIT ECD-mFc (fusion protein of …)
Assay: ELISA
Protocol: (§1) After discarding the coating solution, the plate was added with 5% skim milk powder (Sangon Biotech, CAT #A600669-0250)-PBS, 250 μL/well, and incubated at 37° C. for 2-4 hours. […] The enzyme-labeled plate was then washed with 0.05% Tween 20-PBS for 3 times on the Microplate Washer, added with tested antibodies diluted to 13 nM with 1% BSA (diluted by 3-fold serial dilution for 12 concentration points), 50 μL/well, and incubated at 37° C. for 1.5-2 hours. The plate was washed with 0.05% Tween 20-PBS for 3 times on the Microplate Washer, then added with HRP enzyme-labeled antibodies (Merck, CAT #AP113P) diluted with 1% BSA (Sangon Biotech, CAT #A500023-0100)-PBS at a dilution ratio of 1:5000, 50 μL/well, and incubated at 37° C. for 1 hour. After washing 3 times with 0.05% Tween 20-PBS on the Microplate Washer, the plate was added with TMB chromogenic solution (KPL, CAT #52-00-03), 50 μL/well, and incubated at room temperature for 7-10 minutes. 1M HCL, 50 μL/well, was then added into the plate to terminate the reaction, and the OD450 nm was read by a microplate reader (Biotek, Powerwave HT). […] (b) The binding activity of anti-TIGIT chimeric antibodies to CHO-K1 human TIGIT (cells with high, medium and low expression levels) and CHO-KI cynomolgus monkey TIGIT detected by FACS.

| Binder | EC50 |
| --- | --- |
| B1 | 0.0181 nM |
| B2 | 0.0173 nM |
| B3 | 0.0167 nM |
| B4 | 0.0145 nM |

Biological target: T4, cynomolgus monkey TIGIT ECD-mFc (extracellular domain of cynomolgus monkey TIGIT and mouse IgG2a Fc fragment) (cynomolgus monkey)
T4 construct: entry includes the signal peptide, limits not readable here
Assay: ELISA
Protocol: as §1

T4 sequence (chain, as listed by the source limits assumed): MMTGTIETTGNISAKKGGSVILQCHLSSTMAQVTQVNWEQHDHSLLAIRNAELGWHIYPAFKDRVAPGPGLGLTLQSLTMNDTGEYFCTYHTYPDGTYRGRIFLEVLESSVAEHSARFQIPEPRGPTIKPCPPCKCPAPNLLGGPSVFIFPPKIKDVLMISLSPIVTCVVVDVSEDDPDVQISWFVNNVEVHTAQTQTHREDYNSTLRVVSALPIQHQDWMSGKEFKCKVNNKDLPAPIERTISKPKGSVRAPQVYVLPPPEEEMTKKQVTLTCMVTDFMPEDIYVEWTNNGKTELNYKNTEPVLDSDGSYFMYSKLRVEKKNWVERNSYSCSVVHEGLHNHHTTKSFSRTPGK

| Binder | EC50 |
| --- | --- |
| B1 | 0.0165 nM |
| B2 | 0.017 nM |
| B3 | 0.0389 nM |
| B4 | 0.0163 nM |

Biological target: T1, human TIGIT ECD-mFc (fusion protein of …)
Assay: FACS, competition: hTIGIT ECD-mFc to CHO-K1 CD155
Protocol: The collected CHO-K1 CD155 cells were washed once with PBS (Hyclone, CAT #SH30256) and resuspended to 2×10⁵/40 μL with 1% BSA-PBS. The tested antibodies were diluted to 600 nM with 1% BSA-PBS (diluted by 2.5-fold serial dilution for 12 concentration points). The TIGIT ECD-mFc was diluted with 1% BSA-PBS to 6 μg/mL. The 40 μL cells were then mixed with 40 μL diluted antibodies and 40 μL diluted TIGIT ECD-mFc, and then incubated at 4° C. for 60 minutes. […] The cell samples were washed twice with PBS, resuspended to 100 μL/well with 1% BSA-PBS and then analyzed by flow cytometry (BD, Canto II).

| Binder | IC50 |
| --- | --- |
| B1 | 0.368 nM |
| B2 | 0.363 nM |
| B3 | 0.572 nM |
| B4 | 0.582 nM |

Biological target: T5, full-length cynomolgus monkey TIGIT on CHO-K1 cells (CHO-K1 cynomolgus monkey TIGIT) (cynomolgus monkey)
T5 construct: NCBI XP_015300911.1; also called cynomolgus monkey TIGIT cells
Assay: FACS
Protocol: (§2) The collected cells were washed once with PBS (Hyclone, CAT #SH30256), resuspended to 2×10⁵/50 μL with 1% BSA-PBS. The antibodies were diluted to 80 nM with 1% BSA-PBS (diluted by 3-fold serial dilution for 12 concentration points). The 50 μL cells were then mixed with 50 μL diluted antibodies, and then incubated at 4° C. for 60 minutes. […] After washing twice with PBS, the cell samples were resuspended with 1% BSA-PBS, 100 μL/well and then analyzed by flow cytometry (BD, Canto II). […] [0298] (c) The effect of anti-TIGIT chimeric antibodies blocking the interaction between Bio-CD155-His and CHO-K1 human TIGIT high expression cell strains detected by FACS

T5 sequence (chain, as listed by the source limits assumed): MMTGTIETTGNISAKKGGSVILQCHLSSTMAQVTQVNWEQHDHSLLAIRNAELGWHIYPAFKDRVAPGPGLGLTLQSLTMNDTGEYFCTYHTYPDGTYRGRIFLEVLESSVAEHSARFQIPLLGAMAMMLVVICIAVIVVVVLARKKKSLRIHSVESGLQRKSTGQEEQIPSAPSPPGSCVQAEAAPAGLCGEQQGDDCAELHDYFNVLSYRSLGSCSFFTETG

| Binder | EC50 |
| --- | --- |
| B1 | 0.029 nM |
| B2 | 0.0264 nM |
| B3 | 0.0731 nM |
| B4 | 0.0359 nM |

Biological target: T2, full-length human TIGIT on CHO-K1 cells …
Assay: FACS, low expression strain
Protocol: as §2

| Binder | EC50 |
| --- | --- |
| B1 | 0.218 nM |
| B2 | 0.229 nM |
| B3 | 0.329 nM |
| B4 | 0.352 nM |

Biological target: T2, full-length human TIGIT on CHO-K1 cells …
Assay: FACS, high expression strain
Protocol: as §2

| Binder | EC50 |
| --- | --- |
| B1 | 0.299 nM |
| B2 | 0.342 nM |
| B3 | 0.502 nM |
| B4 | 0.517 nM |

Biological target: T2, full-length human TIGIT on CHO-K1 cells …
Assay: FACS, medium expression strain
Protocol: as §2

| Binder | EC50 |
| --- | --- |
| B1 | 0.29 nM |
| B2 | 0.316 nM |
| B3 | 0.481 nM |
| B4 | 0.394 nM |

Biological target: T2, full-length human TIGIT on CHO-K1 cells …
Assay: FACS, competition: Bio-CD155-His to CHO-K1 human TIGIT
Protocol: The collected cells were washed once with PBS (Hyclone, CAT #SH30256), resuspended to 2×10⁵/40 μL with 1% BSA-PBS. The antibodies were diluted to 210 nM with 1% BSA-PBS (diluted by 3-fold serial dilution for 12 concentration points). […] The 40 μL cells were then mixed with 40 μL diluted antibodies and 40 μL diluted Bio-CD155-His, and then incubated at 4° C. for 60 minutes. The cells were washed twice with PBS, resuspended with APC labeled streptavidin (dilution ratio 1:1700, Biolegend, 405243), 100 μL/well, and incubated at 4° C. for 40 minutes. The cell samples were washed twice with PBS, resuspended with 1% BSA-PBS, 100 μL/well and then analyzed by flow cytometry (BD, Canto II). […] [0300] (d) The effect of anti-TIGIT chimeric antibodies blocking the interaction between TIGIT ECD-mFc and CHO-K1 CD155 detected by FACS

| Binder | IC50 |
| --- | --- |
| B1 | 0.152 nM |
| B2 | 0.158 nM |
| B3 | 0.246 nM |
| B4 | 0.384 nM |

Biological target: T3, human TIGIT ECD-his (fusion protein of …)
Assay: BIAcore kinetics

| Binder | Kd | koff | kon |
| --- | --- | --- | --- |
| B1 | 0.0697 nM | 0.000315 s⁻¹ | 4.53e+06 M⁻¹ s⁻¹ |
| B2 | 0.0536 nM | 0.000192 s⁻¹ | 3.59e+06 M⁻¹ s⁻¹ |
| B3 | 0.132 nM | 0.00017 s⁻¹ | 1.29e+06 M⁻¹ s⁻¹ |
| B4 | 0.3 nM | 0.000456 s⁻¹ | 1.52e+06 M⁻¹ s⁻¹ |
